Experimental data reported in the supplement of paper PMC5998384.

Experiments:
HeLa Kyoto [1] = assay: solubility change mitosis vs G1/S (difference of NP-40 vs SDS log2 ratios) (log2 ratio difference); higher = more soluble in mitosis
HeLa Kyoto [2] = assay: solubility in G1/S (NP-40 vs SDS abundance) (log2 ratio); higher = more soluble; conditions: cell cycle stage: G1/S
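Wherever solubility change mitosis vs G1/S (difference of NP-40 vs SDS log2 ratios) is given: synchronized HeLa Kyoto cells (double thymidine block for G1/S, nocodazole release for mitosis), protein amounts in NP-40 versus SDS lysates quantified by mass spectrometry, three biological replicates.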
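Wherever solubility in G1/S (NP-40 vs SDS abundance) is given: HeLa Kyoto cells arrested at G1/S by double thymidine block, proteins quantified by TMT10plex mass spectrometry in mild NP-40 versus SDS extracts, three biological replicates.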

Sequence	solubility change mitosis (log2) (HeLa Kyoto [1])	solubility in G1/S (log2) (HeLa Kyoto [2])
MPAGGRAGSLKDPDVAELFFKDDPEKLFSDLREIGHGSFGAVYFARDVRNSEVVAIKKMSYSGKQSNEKWQDIIKEVRFLQKLRHPNTIQYRGCYLREHTAWLVMEYCLGSASDLLEVHKKPLQEVEIAAVTHGALQGLAYLHSHNMIHRDVKAGNILLSEPGLVKLGDFGSASIMAPANSFVGTPYWMAPEVILAMDEGQYDGKVDVWSLGITCIELAERKPPLFNMNAMSALYHIAQNESPVLQSGHWSEYFRNFVDSCLQKIPQDRPTSEVLLKHRFVLRERPPTVIMDLIQRTKDAVRELDNLQYRKMKKILFQEAPNGPGAEAPEEEEEAEPYMHRAGTLTSLESSHSVPSMSISASSQSSSVNSLADASDNEEEEEEEEEEEEEEEGPEAREMAMMQEGEHTVTSHSSIIHRLPGSDNLYDDPYQPEITPSPLQPPAAPAPTSTTSSARRRAYCRNRDHFATIRTASLVSRQIQEHEQDSALREQLSGYKRMRRQHQKQLLALESRLRGEREEHSARLQRELEAQRAGFGAEAEKLARRHQAIGEKEARAAQAEERKFQQHILGQQKKELAALLEAQKRTYKLRKEQLKEELQENPSTPKREKAEWLLRQKEQLQQCQAEEEAGLLRRQRQYFELQCRQYKRKMLLARHSLDQDLLREDLNKKQTQKDLECALLLRQHEATRELELRQLQAVQRTRAELTRLQHQTELGNQLEYNKRREQELRQKHAAQVRQQPKSLKVRAGQRPPGLPLPIPGALGPPNTGTPIEQQPCSPGQEAVLDQRMLGEEEEAVGERRILGKEGATLEPKQQRILGEESGAPSPSPQKHGSLVDEEVWGLPEEIEELRVPSLVPQERSIVGQEEAGTWSLWGKEDESLLDEEFELGWVQGPALTPVPEEEEEEEEGAPIGTPRDPGDGCPSPDIPPEPPPTHLRPCPASQLPGLLSHGLLAGLSFAVGSSSGLLPLLLLLLLPLLAAQGGGGLQAALLALEVGLVGLGASYLLLCTALHLPSSLFLLLAQGTALGAVLGLSWRRGLMGVPLGLGAAWLLAWPGLALPLVAMAAGGRWVRQQGPRVRRGISRLWLRVLLRLSPMAFRALQGCGAVGDRGLFALYPKTNKDGFRSRLPVPGPRRRNPRTTQHPLALLARVWVLCKGWNWRLARASQGLASHLPPWAIHTLASWGLLRGERPTRIPRLLPRSQRQLGPPASRQPLPGTLAGRRSRTRQSRALPPWR [TAOK2]	-0.0236	-0.239
MPALLERPKLSNAMARALHRHIMMERERKRQEEEEVDKMMEQKMKEEQERRKKKEMEERMSLEETKEQILKLEEKLLALQEEKHQLFLQLKKVLHEEEKRRRKEQSDLTTLTSAAYQQSLTVHTGTHLLSMQGSPGGHNRPGTLMAADRAKQMFGPQVLTTRHYVGSAAAFAGTPEHGQFQGSPGGAYGTAQPPPHYGPTQPAYSPSQQLRAPSAFPAVQYLSQPQPQPYAVHGHFQPTQTGFLQPGGALSLQKQMEHANQQTGFSDSSSLRPMHPQALHPAPGLLASPQLPVQMQPAGKSGFAATSQPGPRLPFIQHSQNPRFYHK [GPS2]	-0.0529	0.416
MPAPAATYERVVYKNPSEYHYMKVCLEFQDCGVGLNAAQFKQLLISAVKDLFGEVDAALPLDILTYEEKTLSAILRICSSGLVKLWSSLTLLGSYKGKKCAFRVIQVSPFLLALSGNSRELVLD [RPP14]	0.0872	-0.294
MPCVQAQYSPSPPGSSYAAQTYSSEYTTEIMNPDYTKLTMDLGSTEITATATTSLPSISTFVEGYSSNYELKPSCVYQMQRPLIKVEEGRAPSYHHHHHHHHHHHHHHQQQHQQPSIPPASSPEDEVLPSTSMYFKQSPPSTPTTPAFPPQAGALWDEALPSAPGCIAPGPLLDPPMKAVPTVAGARFPLFHFKPSPPHPPAPSPAGGHHLGYDPTAAAALSLPLGAAAAAGSQAAALESHPYGLPLAKRAAPLAFPPLGLTPSPTASSLLGESPSLPSPPSRSSSSGEGTCAVCGDNAACQHYGVRTCEGCKGFFKRTVQKNAKYVCLANKNCPVDKRRRNRCQYCRFQKCLSVGMVKEVVRTDSLKGRRGRLPSKPKSPLQQEPSQPSPPSPPICMMNALVRALTDSTPRDLDYSRYCPTDQAAAGTDAEHVQQFYNLLTASIDVSRSWAEKIPGFTDLPKEDQTLLIESAFLELFVLRLSIRSNTAEDKFVFCNGLVLHRLQCLRGFGEWLDSIKDFSLNLQSLNLDIQALACLSALSMITERHGLKEPKRVEELCNKITSSLKDHQSKGQALEPTESKVLGALVELRKICTLGLQRIFYLKLEDLVSPPSIIDKLFLDTLPF [NR4A3]	-0.0421	-0.0603
MPDNRQPRNRQPRIRSGNEPRSAPAMEPDGRGAWAHSRAALDRLEKLLRCSRCTNILREPVCLGGCEHIFCSNCVSDCIGTGCPVCYTPAWIQDLKINRQLDSMIQLCSKLRNLLHDNELSDLKEDKPRKSLFNDAGNKKNSIKMWFSPRSKKVRYVVSKASVQTQPAIKKDASAQQDSYEFVSPSPPADVSERAKKASARSGKKQKKKTLAEINQKWNLEAEKEDGEFDSKEESKQKLVSFCSQPSVISSPQINGEIDLLASGSLTESECFGSLTEVSLPLAEQIESPDTKSRNEVVTPEKVCKNYLTSKKSLPLENNGKRGHHNRLSSPISKRCRTSILSTSGDFVKQTVPSENIPLPECSSPPSCKRKVGGTSGRKNSNMSDEFISLSPGTPPSTLSSSSYRRVMSSPSAMKLLPNMAVKRNHRGETLLHIASIKGDIPSVEYLLQNGSDPNVKDHAGWTPLHEACNHGHLKVVELLLQHKALVNTTGYQNDSPLHDAAKNGHVDIVKLLLSYGASRNAVNIFGLRPVDYTDDESMKSLLLLPEKNESSSASHCSVMNTGQRRDGPLVLIGSGLSSEQQKMLSELAVILKAKKYTEFDSTVTHVVVPGDAVQSTLKCMLGILNGCWILKFEWVKACLRRKVCEQEEKYEIPEGPRRSRLNREQLLPKLFDGCYFYLWGTFKHHPKDNLIKLVTAGGGQILSRKPKPDSDVTQTINTVAYHARPDSDQRFCTQYIIYEDLCNYHPERVRQGKVWKAPSSWFIDCVMSFELLPLDS [BARD1]	0.187	-0.332
MPGLVDSNPAPPESQEKKPLKPCCACPETKKARDACIIEKGEEHCGHLIEAHKECMRALGFKI [COX17]	0.425	-0.216
MPIPPPPPPPPGPPPPPTFHQANTEQPKLSRDEQRGRGALLQDICKGTKLKKVTNINDRSAPILEKPKGSSGGYGSGGAALQPKGGLFQGGVLKLRPVGAKDGSENLAGKPALQIPSSRAAAPRPPVSAASGRPQDDTDSSRASLPELPRMQRPSLPDLSRPNTTSSTGMKHSSSAPPPPPPGRRANAPPTPLPMHSSKAPAYNREKPLPPTPGQRLHPGREGPPAPPPVKPPPSPVNIRTGPSGQSLAPPPPPYRQPPGVPNGPSSPTNESAPELPQRHNSLHRKTPGPVRGLAPPPPTSASPSLLSNRPPPPARDPPSRGAAPPPPPPVIRNGARDAPPPPPPYRMHGSEPPSRGKPPPPPSRTPAGPPPPPPPPLRNGHRDSITTVRSFLDDFESKYSFHPVEDFPAPEEYKHFQRIYPSKTNRAARGAPPLPPILR [WIPF2]	1.2	-0.764
MPNFSGNWKIIRSENFEELLKVLGVNVMLRKIAVAAASKPAVEIKQEGDTFYIKTSTTVRTTEINFKVGEEFEEQTVDGRPCKSLVKWESENKMVCEQKLLKGEGPKTSWTRELTNDGELILTMTADDVVCTRVYVRE [CRABP2]	-0.109	-0.0816
MPPKKDVPVKKPAGPSISKPAAKPAAAGAPPAKTKAEPAVPQAPQKTQEPPVDLSKVVIEFNKDQLEEFKEAFELFDRVGDGKILYSQCGDVMRALGQNPTNAEVLKVLGNPKSDELKSRRVDFETFLPMLQAVAKNRGQGTYEDYLEGFRVFDKEGNGKVMGAELRHVLTTLGEKMTEEEVETVLAGHEDSNGCINYEAFLKHILSV [MYL6B]	0.317	-0.063
